Source: paper PMC8868134 (Antibiotics, 2022)

Molecular target: T1, MexB (RND inner membrane transporter) (Pseudomonas aeruginosa, UniProt P52002 1-1046)
T1 sequence: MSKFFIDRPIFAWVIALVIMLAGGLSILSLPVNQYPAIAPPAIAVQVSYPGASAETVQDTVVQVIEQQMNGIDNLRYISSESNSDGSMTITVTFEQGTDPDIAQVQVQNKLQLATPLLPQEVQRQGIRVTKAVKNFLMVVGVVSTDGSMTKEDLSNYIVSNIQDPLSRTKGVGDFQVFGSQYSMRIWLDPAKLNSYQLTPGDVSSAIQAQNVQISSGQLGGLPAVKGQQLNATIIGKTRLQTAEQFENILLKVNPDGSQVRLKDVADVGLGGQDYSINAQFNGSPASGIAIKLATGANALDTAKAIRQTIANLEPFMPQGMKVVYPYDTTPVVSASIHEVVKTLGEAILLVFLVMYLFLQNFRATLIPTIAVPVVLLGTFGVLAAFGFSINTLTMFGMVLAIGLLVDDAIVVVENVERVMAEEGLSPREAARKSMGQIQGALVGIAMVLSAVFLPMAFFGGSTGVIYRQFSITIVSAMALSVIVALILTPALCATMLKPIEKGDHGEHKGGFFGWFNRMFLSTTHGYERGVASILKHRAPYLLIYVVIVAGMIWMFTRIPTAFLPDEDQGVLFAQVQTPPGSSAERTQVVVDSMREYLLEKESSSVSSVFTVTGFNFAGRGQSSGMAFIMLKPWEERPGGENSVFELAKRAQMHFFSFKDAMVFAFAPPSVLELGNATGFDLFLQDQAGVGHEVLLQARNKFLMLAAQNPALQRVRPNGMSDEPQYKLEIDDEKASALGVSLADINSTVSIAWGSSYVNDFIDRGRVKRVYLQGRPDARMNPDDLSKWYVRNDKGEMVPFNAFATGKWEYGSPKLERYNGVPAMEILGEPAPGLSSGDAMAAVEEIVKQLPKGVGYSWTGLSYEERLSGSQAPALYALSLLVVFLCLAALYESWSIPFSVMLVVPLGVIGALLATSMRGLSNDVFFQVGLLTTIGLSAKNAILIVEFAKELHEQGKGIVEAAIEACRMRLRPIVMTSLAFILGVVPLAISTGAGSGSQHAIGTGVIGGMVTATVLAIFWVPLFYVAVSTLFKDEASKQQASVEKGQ
Experiment: BLI

B1: MexA wild type (periplasmic adaptor protein of MexA-MexB-OprM) (natural protein)
chain: CGKSEAPPPAQTPEVGIVTLEAQTVTLNTELPGRTNAFRIAEVRPQVNGIILKRLFKEGSDVKAGQQLYQIDPATYEADYQSAQANLASTQEQAQRYKLLVADQAVSKQQYADANAAYLQSKAAVEQARINLRYTKVLSPISGRIGRSAVTEGALVTNGQANAMATVQQLDPIYVDVTQPSTALLRLRRELASGQLERAGDNAAKVSLKLEDGSQYPLEGRLEFSEVSVDEGTGSVTIRAVFPNPNNELLPGMFVHAQLQEGVKQKAILAPQQGVTRDLKGQATALVVNAQNKVELRVIKADRVIGDKWLVTEGLNAGDKIITEGLQFVQPGVEVKTVPAKNVASAQKADAAPAKTDSKG
**Q.** With B1 as the binder, how does the Kd read?
**A.** 23 µM

**Q.** What about the koff of the same binder?
**A.** 0.0055 s⁻¹
